In US20210101982A1:

Target: PD-L1 on cells (cancer cell lines expressing PD-L1; PD-L1+ aAPC/CHO-K1 cells) (human) (UniProt Q9NZQ7)
Experiment: cell-based or functional assay

Sequence of PD-L1 on cells (cancer cell lines expressing PD-L1; PD-L1+ aAPC/CHO-K1 cells) (human) (Q9NZQ7 19-290): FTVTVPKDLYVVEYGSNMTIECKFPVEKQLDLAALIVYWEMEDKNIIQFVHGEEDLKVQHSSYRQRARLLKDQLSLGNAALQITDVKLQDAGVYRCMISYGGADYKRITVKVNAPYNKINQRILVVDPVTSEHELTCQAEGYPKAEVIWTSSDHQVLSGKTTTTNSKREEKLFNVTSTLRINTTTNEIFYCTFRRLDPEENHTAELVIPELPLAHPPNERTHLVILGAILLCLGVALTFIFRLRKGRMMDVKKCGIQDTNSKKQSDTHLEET

Atezolizumab - MP-PEG8-VKG-Camptothecin (antibody)
> 3000 ng/mL: x50 (50% reduction in viability, CellTiter-Glo, 96 h) on 786-O cells | x50 (50% reduction in viability, CellTiter-Glo, 96 h) on BXPC3 cells | x50 (50% reduction in viability, CellTiter-Glo, 96 h) on KARPAS 299 cells | x50 (50% reduction in viability, CellTiter-Glo, 96 h) on L540CY cells | x50 (50% reduction in viability, CellTiter-Glo, 96 h) on MDA-MB-231 cells

Atezolizumab - vc-MMAE (antibody)
> 3000 ng/mL: x50 (50% reduction in viability, CellTiter-Glo, 96 h) on 786-O cells | x50 (50% reduction in viability, CellTiter-Glo, 96 h) on BXPC3 cells | x50 (50% reduction in viability, CellTiter-Glo, 96 h) on KARPAS 299 cells | x50 (50% reduction in viability, CellTiter-Glo, 96 h) on L540CY cells | x50 (50% reduction in viability, CellTiter-Glo, 96 h) on MDA-MB-231 cells
